From PMC5477490 come the findings set out here.

Assay [1] deals with HA ectodomain of A/Washington/05/2011(H1N1) (influenza A virus A/Washington/05/2011(H1N1)). Kind of assay: crystal structure.
Assay [2] shares this target. Kind of assay: not stated; purified HA ectodomain in solution; data in Supplementary Fig. 2.
The target of another assay is 3E1 Fab, P01857;P01834. As to conditions: parent: est. 100; read off a plot.

In general, stoichiometry N refers to the number of molecules, sites or subunits per partner or assembly. Regarding “HA ectodomain of A/Washington/05/2011(H1N1) (domain or fragment)”, the stoichiometry N in assay [1] and in assay [2] was 3 in each case.
Consider “full-length, wild-type HA from A/Washington/05/2011 (H1N1) HA1:NAT”, for which, in the assay with 3E1 Fab, P01857;P01834, the percent of parent was 2%.
On to “full-length, wild-type HA from A/Washington/05/2011 (H1N1) HA2:I45F”, for which the percent of parent in the assay with 3E1 Fab, P01857;P01834 was 1%.
As to “full-length, wild-type HA from A/Washington/05/2011 (H1N1) HA2:D19N”, the percent of parent with 3E1 Fab, P01857;P01834 came to 7%.
For “full-length, wild-type HA from A/Washington/05/2011 (H1N1) HA1:H18Q”, the percent of parent in the assay with 3E1 Fab, P01857;P01834 worked out at 1%.
